Reference: US20140087995A1 (published 2014)
Numbered stars: 1 amine (or outer) side, 2 acyl side, 3 side chain; on linkers, the order of the positions; unused ones are H or OH. Bridge positions count the residues as written; N and C are the ends. * marks the point of attachment. C20 diacid = O=C(O)CCCCCCCCCCCCCCCCCCC(=O)*; γGlu = O=C(O)[C@H](CCC(=O)[*:2])N[*:1]

T1: rat amylin receptor (rat calcitonin receptor + rat RAMP 3) (rat, UniProt P32214 25-516; Q9JJ73 23-147)
T1 construct: whole, on cells; Membranes of BHK tk'ts 13 cells transiently transfected with the rat calcitonin receptor and rat RAMP 3; also called rAmylin-R; rat amylin 3(a) receptor
T1 sequence (looked up) 1: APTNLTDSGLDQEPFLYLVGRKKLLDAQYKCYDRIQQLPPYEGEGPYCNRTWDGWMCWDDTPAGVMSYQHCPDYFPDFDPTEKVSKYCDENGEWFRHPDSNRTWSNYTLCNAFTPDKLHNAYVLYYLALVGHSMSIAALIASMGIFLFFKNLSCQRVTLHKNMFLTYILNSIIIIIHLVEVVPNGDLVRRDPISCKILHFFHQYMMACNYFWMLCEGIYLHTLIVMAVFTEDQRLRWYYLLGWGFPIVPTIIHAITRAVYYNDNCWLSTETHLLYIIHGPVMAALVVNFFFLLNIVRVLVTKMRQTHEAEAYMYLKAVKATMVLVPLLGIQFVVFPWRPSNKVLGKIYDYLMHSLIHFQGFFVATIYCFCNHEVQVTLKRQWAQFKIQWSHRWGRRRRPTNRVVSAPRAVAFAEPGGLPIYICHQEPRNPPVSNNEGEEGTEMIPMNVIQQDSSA
T1 sequence (looked up) 2: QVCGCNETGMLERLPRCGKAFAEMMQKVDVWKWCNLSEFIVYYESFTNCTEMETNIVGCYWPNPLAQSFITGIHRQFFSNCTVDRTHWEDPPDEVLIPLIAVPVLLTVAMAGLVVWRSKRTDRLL

T2: human calcitonin receptor (human, UniProt P30988 25-474)
T2 construct: whole, on cells; Membranes of a BHK tk'ts 13 cell line stably transfected with the human calcitonin receptor; also called hCTR; hCT
T2 sequence (looked up): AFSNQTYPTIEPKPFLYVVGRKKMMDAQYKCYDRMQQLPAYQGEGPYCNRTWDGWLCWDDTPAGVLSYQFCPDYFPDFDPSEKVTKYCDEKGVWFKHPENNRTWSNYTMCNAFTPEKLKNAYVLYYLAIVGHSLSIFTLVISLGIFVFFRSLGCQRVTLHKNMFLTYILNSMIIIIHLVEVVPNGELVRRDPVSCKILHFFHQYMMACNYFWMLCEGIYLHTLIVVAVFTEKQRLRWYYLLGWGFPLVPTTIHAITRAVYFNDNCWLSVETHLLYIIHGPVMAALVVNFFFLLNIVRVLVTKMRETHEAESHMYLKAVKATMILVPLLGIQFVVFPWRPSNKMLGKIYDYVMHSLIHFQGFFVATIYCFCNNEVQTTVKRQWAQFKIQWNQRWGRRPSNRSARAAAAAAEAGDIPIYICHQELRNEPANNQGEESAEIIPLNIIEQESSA

T3: rat calcitonin receptor (rat, UniProt P32214 25-516)
T3 construct: whole, on cells; Membranes of BHK tk'ts 13 cells transiently transfected with the rat calcitonin receptor; also called rCTR; rat calcitonin (a) receptor
T3 sequence (looked up): T1 sequence (looked up) 1

B1: N^α1-[(4S)-4-carboxy-4-(19-carboxynonadecanoylamino)butanoyl]-[Glu14,Arg17,Pro21,Pro27,His34]-h-amylin (peptide)
peptide: {C20 diacid-γGlu}-KCNTATCATQRLAEFLRHSSPNFGAIPSSTNVGHNTY-NH2
modifications: disulfide 2-7
SMILES: CC[C@H](C)[C@H](NC(=O)[C@H](C)NC(=O)CNC(=O)[C@H](Cc1ccccc1)NC(=O)[C@H](CC(N)=O)NC(=O)[C@@H]1CCCN1C(=O)[C@H](CO)NC(=O)[C@H](CO)NC(=O)[C@H](Cc1c[nH]cn1)NC(=O)[C@H](CCCNC(=N)N)NC(=O)[C@H](CC(C)C)NC(=O)[C@H](Cc1ccccc1)NC(=O)[C@H](CCC(=O)O)NC(=O)[C@H](C)NC(=O)[C@H](CC(C)C)NC(=O)[C@H](CCCNC(=N)N)NC(=O)[C@H](CCC(N)=O)NC(=O)[C@@H](NC(=O)[C@H](C)NC(=O)[C@@H]1CSSC[C@H](NC(=O)[C@H](CCCCN)NC(=O)CC[C@H](NC(=O)CCCCCCCCCCCCCCCCCCC(=O)O)C(=O)O)C(=O)N[C@@H](CC(N)=O)C(=O)N[C@@H]([C@@H](C)O)C(=O)N[C@@H](C)C(=O)N[C@@H]([C@@H](C)O)C(=O)N1)[C@@H](C)O)C(=O)N1CCC[C@H]1C(=O)N[C@@H](CO)C(=O)N[C@@H](CO)C(=O)N[C@H](C(=O)N[C@@H](CC(N)=O)C(=O)N[C@H](C(=O)NCC(=O)N[C@@H](Cc1c[nH]cn1)C(=O)N[C@@H](CC(N)=O)C(=O)N[C@H](C(=O)N[C@@H](Cc1ccc(O)cc1)C(N)=O)[C@@H](C)O)C(C)C)[C@@H](C)O
notes: modifications are with respect to human amylin; also called compound 17
B2: N^α1-[(4S)-4-carboxy-4-(19-carboxynonadecanoylamino)butanoyl]-[Glu14,Arg17,Pro21,Pro28,Glu35]-h-amylin (peptide)
peptide: {C20 diacid-γGlu}-KCNTATCATQRLAEFLRHSSPNFGAILPSTNVGSETY-NH2
modifications: disulfide 2-7
notes: modifications are with respect to human amylin; also called compound 33
B3: N^α1-[(4S)-4-carboxy-4-(19-carboxynonadecanoylamino)butanoyl]-[Glu14,Arg17,Pro21,Pro27,Pro31]-h-amylin (peptide)
peptide: {C20 diacid-γGlu}-KCNTATCATQRLAEFLRHSSPNFGAIPSSTPVGSNTY-NH2
modifications: disulfide 2-7
SMILES: CC[C@H](C)[C@H](NC(=O)[C@H](C)NC(=O)CNC(=O)[C@H](Cc1ccccc1)NC(=O)[C@H](CC(N)=O)NC(=O)[C@@H]1CCCN1C(=O)[C@H](CO)NC(=O)[C@H](CO)NC(=O)[C@H](Cc1c[nH]cn1)NC(=O)[C@H](CCCNC(=N)N)NC(=O)[C@H](CC(C)C)NC(=O)[C@H](Cc1ccccc1)NC(=O)[C@H](CCC(=O)O)NC(=O)[C@H](C)NC(=O)[C@H](CC(C)C)NC(=O)[C@H](CCCNC(=N)N)NC(=O)[C@H](CCC(N)=O)NC(=O)[C@@H](NC(=O)[C@H](C)NC(=O)[C@@H]1CSSC[C@H](NC(=O)[C@H](CCCCN)NC(=O)CC[C@H](NC(=O)CCCCCCCCCCCCCCCCCCC(=O)O)C(=O)O)C(=O)N[C@@H](CC(N)=O)C(=O)N[C@@H]([C@@H](C)O)C(=O)N[C@@H](C)C(=O)N[C@@H]([C@@H](C)O)C(=O)N1)[C@@H](C)O)C(=O)N1CCC[C@H]1C(=O)N[C@@H](CO)C(=O)N[C@@H](CO)C(=O)N[C@H](C(=O)N1CCC[C@H]1C(=O)N[C@H](C(=O)NCC(=O)N[C@@H](CO)C(=O)N[C@@H](CC(N)=O)C(=O)N[C@H](C(=O)N[C@@H](Cc1ccc(O)cc1)C(N)=O)[C@@H](C)O)C(C)C)[C@@H](C)O
notes: modifications are with respect to human amylin; also called compound 31
B4: N^α1-[(4S)-4-carboxy-4-(19-carboxynonadecanoylamino)butanoyl]-[Glu14,Arg17,Pro21,Pro27,His35]-h-amylin (peptide)
peptide: {C20 diacid-γGlu}-KCNTATCATQRLAEFLRHSSPNFGAIPSSTNVGSHTY-NH2
modifications: disulfide 2-7
SMILES: CC[C@H](C)[C@H](NC(=O)[C@H](C)NC(=O)CNC(=O)[C@H](Cc1ccccc1)NC(=O)[C@H](CC(N)=O)NC(=O)[C@@H]1CCCN1C(=O)[C@H](CO)NC(=O)[C@H](CO)NC(=O)[C@H](Cc1c[nH]cn1)NC(=O)[C@H](CCCNC(=N)N)NC(=O)[C@H](CC(C)C)NC(=O)[C@H](Cc1ccccc1)NC(=O)[C@H](CCC(=O)O)NC(=O)[C@H](C)NC(=O)[C@H](CC(C)C)NC(=O)[C@H](CCCNC(=N)N)NC(=O)[C@H](CCC(N)=O)NC(=O)[C@@H](NC(=O)[C@H](C)NC(=O)[C@@H]1CSSC[C@H](NC(=O)[C@H](CCCCN)NC(=O)CC[C@H](NC(=O)CCCCCCCCCCCCCCCCCCC(=O)O)C(=O)O)C(=O)N[C@@H](CC(N)=O)C(=O)N[C@@H]([C@@H](C)O)C(=O)N[C@@H](C)C(=O)N[C@@H]([C@@H](C)O)C(=O)N1)[C@@H](C)O)C(=O)N1CCC[C@H]1C(=O)N[C@@H](CO)C(=O)N[C@@H](CO)C(=O)N[C@H](C(=O)N[C@@H](CC(N)=O)C(=O)N[C@H](C(=O)NCC(=O)N[C@@H](CO)C(=O)N[C@@H](Cc1c[nH]cn1)C(=O)N[C@H](C(=O)N[C@@H](Cc1ccc(O)cc1)C(N)=O)[C@@H](C)O)C(C)C)[C@@H](C)O
notes: modifications are with respect to human amylin; also called compound 18
B5: N^α1-[(4S)-4-carboxy-4-(19-carboxynonadecanoylamino)butanoyl]-[Glu14,Arg17,Pro21,Pro27,Pro34]-h-amylin (peptide)
peptide: {C20 diacid-γGlu}-KCNTATCATQRLAEFLRHSSPNFGAIPSSTNVGPNTY-NH2
modifications: disulfide 2-7
SMILES: CC[C@H](C)[C@H](NC(=O)[C@H](C)NC(=O)CNC(=O)[C@H](Cc1ccccc1)NC(=O)[C@H](CC(N)=O)NC(=O)[C@@H]1CCCN1C(=O)[C@H](CO)NC(=O)[C@H](CO)NC(=O)[C@H](Cc1c[nH]cn1)NC(=O)[C@H](CCCNC(=N)N)NC(=O)[C@H](CC(C)C)NC(=O)[C@H](Cc1ccccc1)NC(=O)[C@H](CCC(=O)O)NC(=O)[C@H](C)NC(=O)[C@H](CC(C)C)NC(=O)[C@H](CCCNC(=N)N)NC(=O)[C@H](CCC(N)=O)NC(=O)[C@@H](NC(=O)[C@H](C)NC(=O)[C@@H]1CSSC[C@H](NC(=O)[C@H](CCCCN)NC(=O)CC[C@H](NC(=O)CCCCCCCCCCCCCCCCCCC(=O)O)C(=O)O)C(=O)N[C@@H](CC(N)=O)C(=O)N[C@@H]([C@@H](C)O)C(=O)N[C@@H](C)C(=O)N[C@@H]([C@@H](C)O)C(=O)N1)[C@@H](C)O)C(=O)N1CCC[C@H]1C(=O)N[C@@H](CO)C(=O)N[C@@H](CO)C(=O)N[C@H](C(=O)N[C@@H](CC(N)=O)C(=O)N[C@H](C(=O)NCC(=O)N1CCC[C@H]1C(=O)N[C@@H](CC(N)=O)C(=O)N[C@H](C(=O)N[C@@H](Cc1ccc(O)cc1)C(N)=O)[C@@H](C)O)C(C)C)[C@@H](C)O
notes: modifications are with respect to human amylin; also called compound 32
B6: N^α1-[(4S)-4-carboxy-4-(19-carboxynonadecanoylamino)butanoyl]-[Glu14,Arg17,Pro21,Pro27,Pro29]-h-amylin (peptide)
peptide: {C20 diacid-γGlu}-KCNTATCATQRLAEFLRHSSPNFGAIPSPTNVGSNTY-NH2
modifications: disulfide 2-7
SMILES: CC[C@H](C)[C@H](NC(=O)[C@H](C)NC(=O)CNC(=O)[C@H](Cc1ccccc1)NC(=O)[C@H](CC(N)=O)NC(=O)[C@@H]1CCCN1C(=O)[C@H](CO)NC(=O)[C@H](CO)NC(=O)[C@H](Cc1c[nH]cn1)NC(=O)[C@H](CCCNC(=N)N)NC(=O)[C@H](CC(C)C)NC(=O)[C@H](Cc1ccccc1)NC(=O)[C@H](CCC(=O)O)NC(=O)[C@H](C)NC(=O)[C@H](CC(C)C)NC(=O)[C@H](CCCNC(=N)N)NC(=O)[C@H](CCC(N)=O)NC(=O)[C@@H](NC(=O)[C@H](C)NC(=O)[C@@H]1CSSC[C@H](NC(=O)[C@H](CCCCN)NC(=O)CC[C@H](NC(=O)CCCCCCCCCCCCCCCCCCC(=O)O)C(=O)O)C(=O)N[C@@H](CC(N)=O)C(=O)N[C@@H]([C@@H](C)O)C(=O)N[C@@H](C)C(=O)N[C@@H]([C@@H](C)O)C(=O)N1)[C@@H](C)O)C(=O)N1CCC[C@H]1C(=O)N[C@@H](CO)C(=O)N1CCC[C@H]1C(=O)N[C@H](C(=O)N[C@@H](CC(N)=O)C(=O)N[C@H](C(=O)NCC(=O)N[C@@H](CO)C(=O)N[C@@H](CC(N)=O)C(=O)N[C@H](C(=O)N[C@@H](Cc1ccc(O)cc1)C(N)=O)[C@@H](C)O)C(C)C)[C@@H](C)O
notes: modifications are with respect to human amylin; also called compound 37

Target: T1, rat amylin receptor (rat calcitonin …)
Assay: SPA competition vs 125I-rat amylin, membranes with rat CTR + rat RAMP3 (Assay VI)

| IC50 [nM] | Binder |
| --- | --- |
| 2.71 | B1 |
| 2.29 | B2 |
| 0.619 | B3 |
| 0.476 | B4 |
| 0.176 | B5 |
| 0.514 | B6 |

Target: T2, human calcitonin receptor
Assay: IC50 at hCTR divided by IC50 at hAmylin-R (reference)
Procedure, shortened: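 Competition binding by SPA uses membrane preparations (35 ng/μL final) in pH 7.4 Hepes buffer with 1 mM CaCl2 and 5 mM MgCl₂. Incubation lasts 120 min at 25° C, and IC₅₀ comes from one-site fitting.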

| Ratio hCT/hAmylin binding | Binder |
| --- | --- |
| 12.5 | B1 |
| 3.9 | B2 |
| 16 | B3 |
| 9.2 | B4 |
| 10.9 | B5 |
| 2.3 | B6 |

Target: T3, rat calcitonin receptor
Assay: IC50 at rCTR divided by IC50 at rAmylin-R (reference)

| Ratio rCT/rAmylin binding | Binder |
| --- | --- |
| 35.9 | B1 |
| 12.6 | B2 |
| 42.8 | B3 |
| 27.3 | B4 |
| 34 | B5 |
| 14.3 | B6 |

Target: T3, rat calcitonin receptor
Assay: SPA competition vs 125I-calcitonin, membranes with rat CTR (Assay VIII)

| IC50 [nM] | Binder |
| --- | --- |
| 97.2 | B1 |
| 28.9 | B2 |
| 26.5 | B3 |
| 13 | B4 |
| 5.98 | B5 |
| 7.35 | B6 |
